As usually defined, the Kd is the free concentration of one partner at which half of the binding sites on the other are occupied at equilibrium, for simple one-to-one binding. Higher therefore signals weaker binding.

Like-named read-outs stand apart in the source and are kept apart here.

Results on 3 sequences are retold here after patent US12305172.

One data set concerns the target thrombin (UniProt P00734+P00734). Particulars: CD titration at 295 nm, water, no added cations.
A further data set has as its target thrombin (Bos taurus) (UniProt P00735+P00735). As to the kind of experiment: inhibition. Particulars: clotting time.

The sequence GGTTGGTGTGGTTGG [TBA] came in with a Kd in the data set with thrombin (n = 1) of 380 nM.

Regarding GGTTGGTGTGGTTGG [isoTBA], the activity with thrombin (Bos taurus) (2'-5'-linked isoDNA analogue of TBA [1-15 (all 2'-5'-linked isoDNA)], stated for comparison with TBA and iso-rTBA) worked out at 73.4 s.

With GGUUGGUGUGGUUGG [iso-rTBA], in the data set with thrombin (all 2'-5'-linked RNA (3'-OH), SEQ ID NO:1, n = 4 thrombin per oligomer), the Kd amounted to 3400 nM. Besides, the activity with thrombin (Bos taurus) (all 2'-5'-linked RNA (3'-OH), SEQ ID NO:1, 0.25 uM oligomer, 0.1 NIH U thrombin, 3.5 uM human fibrinogen, 37 °C) is 70.9 s.
